Experimental data as given in IntAct's records for PubMed 21575865.

B1: Transcriptional regulator ERG (Homo sapiens), P11308-1 (parent)
chain: MIQTVPDPAAHIKEALSVVSEDQSLFECAYGTPHLAKTEMTASSSSDYGQTSKMSPRVPQQDWLSQPPARVTIKMECNPSQVNGSRNSPDECSVAKGGKMVGSPDTVGMNYGSYMEEKHMPPPNMTTNERRVIVPADPTLWSTDHVRQWLEWAVKEYGLPDVNILLFQNIDGKELCKMTKDDFQRLTPSYNADILLSHLHYLRETPLPHLTSDDVDKALQNSPRLMHARNTDLPYEPPRRSAWTGHGHPTPQSKAAQPSPSTVPKTEDQRPQLDPYQILGPTSSRLANPGSGQIQLWQFLLELLSDSSNSSCITWEGTNGEFKMTDPDEVARRWGERKSKPNMNYDKLSRALRYYYDKNIMTKVHGKRYAYKFDFHGIAQALQPHPPESSLYKYPSDLPYMGSYHAHPQKMNFVAPHPPALPVTSSSFFAAPNPYWNSPTGGIYPNTRLPTSHMPSHLGTYY

Variants of: B1
Conditions: with prkdc_human PRKDC

| effect of a mutation on the interaction | Variant |
| --- | --- |
| disrupting interaction | Y356A |
